One data set deals with T1, GST–NPR1 (UniProt P93002 1-593).
T1 construct: NPR1 (non-expressor of pathogenesis-related gene 1), cloned into pGEX-4T-1; source: E. coli BL21, purified
T1 sequence (looked up): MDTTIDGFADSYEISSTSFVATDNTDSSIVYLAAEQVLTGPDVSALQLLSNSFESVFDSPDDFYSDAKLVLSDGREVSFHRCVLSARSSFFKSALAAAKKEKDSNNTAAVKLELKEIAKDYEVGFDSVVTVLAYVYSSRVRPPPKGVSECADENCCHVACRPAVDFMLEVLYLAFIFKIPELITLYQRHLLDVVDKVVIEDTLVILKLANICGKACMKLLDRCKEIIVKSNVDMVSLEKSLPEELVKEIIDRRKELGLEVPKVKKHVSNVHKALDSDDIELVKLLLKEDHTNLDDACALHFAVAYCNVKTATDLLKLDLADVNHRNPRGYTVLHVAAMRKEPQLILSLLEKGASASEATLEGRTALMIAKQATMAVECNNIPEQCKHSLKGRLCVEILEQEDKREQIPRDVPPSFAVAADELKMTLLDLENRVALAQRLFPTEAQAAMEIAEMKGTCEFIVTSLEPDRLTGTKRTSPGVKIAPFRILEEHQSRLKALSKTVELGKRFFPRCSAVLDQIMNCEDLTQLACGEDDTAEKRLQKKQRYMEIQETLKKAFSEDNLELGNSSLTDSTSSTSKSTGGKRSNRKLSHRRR
Kind of data set: pull-down; GST pull-down in vitro of His-CCP and His-TGA2 added together, in the presence of Cu^2+ (Supplementary Fig. S13). Conditions: both partners purified.

In the next data set the target is NPR1 (UniProt P93002 1-593). Kind of data set: EMSA; NPR1 alone; LightShift EMSA kit: 500 ng GST-tagged protein, 4 fmol biotin-LS7 probe, 20 ul with 1 ul dI-dC, 1 ul 50% glycerol, kit 10x binding buffer, 20 min, 25 C; 6% native gel; salt and pH not stated. Conditions: protein: recombinant; tags: GST (N-terminal); blunt. A general note: In EMSA bound probe runs differently from free probe, usually more slowly.

Another data set deals with TGA2;NPR1 (Arabidopsis thaliana?;Arabidopsis …, UniProt P43273;P93002 1-330;1-593, |). Kind of data set: EMSA; with NPR1; substantially more probe bound than TGA2 alone; LightShift EMSA kit: 500 ng GST-tagged protein, 4 fmol biotin-LS7 probe, 20 ul with 1 ul dI-dC, 1 ul 50% glycerol, kit 10x binding buffer, 20 min, 25 C; 6% native gel; salt and pH not stated. Conditions: protein: recombinant;recombinant; tags: GST (N-terminal);GST (N-terminal); blunt.

B1: His-TGA2 (natural protein, UniProt P43273 1-330, looked up)
chain: MADTSPRTDVSTDDDTDHPDLGSEGALVNTAASDSSDRSKGKMDQKTLRRLAQNREAARKSRLRKKAYVQQLENSRLKLTQLEQELQRARQQGVFISGTGDQAHSTGGNGALAFDAEHSRWLEEKNKQMNELRSALNAHAGDSELRIIVDGVMAHYEELFRIKSNAAKNDVFHLLSGMWKTPAERCFLWLGGFRSSELLKLLANQLEPMTERQLMGINNLQQTSQQAEDALSQGMESLQQSLADTLSSGTLGSSSSGNVASYMGQMAMAMGKLGTLEGFIRQADNLRLQTLQQMIRVLTTRQSARALLAIHDYFSRLRALSSLWLARPRE
notes: transcription factor TGA2
In the case of B1, the binding result with GST–NPR1 is listed as “binds”.

B2: LS7 probe (PR1 promoter) (dsDNA)
DNA 1: TATTTTACTTACGTCATAGATGTGGCGGCA
DNA 2: TGCCGCCACATCTATGACGTAAGTAAAATA
In the case of B2, the binding result with NPR1 is recorded as “no binding”; with TGA2;NPR1 it was “binds”.

For the origin of these results see PMC7586746, “A putative nuclear copper chaperone promotes plant immunity in Arabidopsis” (Journal of Experimental Botany, 2020).
